Source: patent US20240309103A1 (Regeneron, published 2024)

Assays:
[1] = biological target: T1, human NPR1 on HEK293/hNPR1.myc.DDK cells with 10 nM hANP (NPR1-ANP complex) (human, UniProt P01160 124-151); experiment: ECL cell binding (MSD), +10 nM hANP
T1 construct: also called NPR1-ANP Complex on the Cell Surface
T1 sequence: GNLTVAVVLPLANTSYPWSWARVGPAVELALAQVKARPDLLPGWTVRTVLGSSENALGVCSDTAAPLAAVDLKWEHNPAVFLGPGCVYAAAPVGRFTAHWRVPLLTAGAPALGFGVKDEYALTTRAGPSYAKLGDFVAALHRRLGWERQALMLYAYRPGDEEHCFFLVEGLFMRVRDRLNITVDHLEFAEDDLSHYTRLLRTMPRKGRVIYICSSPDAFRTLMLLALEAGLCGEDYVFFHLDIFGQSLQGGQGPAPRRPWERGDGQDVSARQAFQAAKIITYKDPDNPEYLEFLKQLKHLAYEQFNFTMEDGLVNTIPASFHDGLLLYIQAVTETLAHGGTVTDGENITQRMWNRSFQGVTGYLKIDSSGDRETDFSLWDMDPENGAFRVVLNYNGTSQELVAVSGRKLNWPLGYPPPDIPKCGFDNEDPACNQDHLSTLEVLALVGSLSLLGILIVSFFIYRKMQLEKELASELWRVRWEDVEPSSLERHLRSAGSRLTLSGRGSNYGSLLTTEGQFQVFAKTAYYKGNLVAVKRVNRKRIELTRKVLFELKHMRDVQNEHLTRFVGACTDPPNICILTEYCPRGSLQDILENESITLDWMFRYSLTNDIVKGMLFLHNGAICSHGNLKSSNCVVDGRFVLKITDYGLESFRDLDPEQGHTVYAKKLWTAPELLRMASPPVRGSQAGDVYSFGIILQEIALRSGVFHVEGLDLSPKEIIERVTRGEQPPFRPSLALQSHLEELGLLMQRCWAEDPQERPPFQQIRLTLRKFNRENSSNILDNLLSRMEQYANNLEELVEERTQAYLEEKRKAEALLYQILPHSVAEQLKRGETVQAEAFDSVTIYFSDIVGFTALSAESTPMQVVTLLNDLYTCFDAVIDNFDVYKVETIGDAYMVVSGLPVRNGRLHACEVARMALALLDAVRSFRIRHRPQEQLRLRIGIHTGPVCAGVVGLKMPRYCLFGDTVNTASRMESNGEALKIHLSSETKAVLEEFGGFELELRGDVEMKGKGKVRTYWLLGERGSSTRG
T1 sequence (peptide): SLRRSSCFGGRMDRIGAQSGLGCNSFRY
Procedure: (§1) All cells were washed once with 1×PBS with Ca²⁺/Mg²⁺ and counted with a Cellometer™ Auto T4 cell counter (Nexcelom Bioscience). Approximately 2.0×10⁴ HEK293/hNPR1.myc.DDK or HEK293 cells were seeded separately onto 96-well carbon electrode plates (MULTI-ARRAY high bind plate, Meso Scale Discovery (MSD, Rockville, MD)) and incubated for 1 hour (h) at 37° C. Nonspecific binding sites were blocked by 2% BSA (w/v) in 1×PBS with Ca²⁺/Mg²⁺for 1 h at room temperature (RT). HEK293/hNPR1.myc. […] The plate-bound antibodies were detected with SULFO-TAG™-conjugated goat polyclonal anti-human IgG antibody specific for heavy and light chains (Jackson Immunoresearch, West Grove, PA) for 1 h, RT.
(§2) After washes, plates were developed with Read Buffer (MSD, Rockville, MD) according to manufacturer's recommended procedure and luminescent signals were recorded with a SECTOR Imager 600 (MSD, Rockville, MD). Luminescence intensity, measured in relative light units (RLU), was recorded to indicate the binding intensity of each antibody at the range of concentrations.
(§3) In addition, direct binding signals (RLU) were analyzed as a function of the antibody concentration and data were fitted with a sigmoidal (four-parameter logistic) dose-response model using R statistical package (open source).

[2] = biological target: T2, human NPR1 on HEK293/hNPR1.myc.DDK cells (0 hANP) (human, UniProt P16066 33-1061); experiment: cell-based or functional assay
T2 sequence: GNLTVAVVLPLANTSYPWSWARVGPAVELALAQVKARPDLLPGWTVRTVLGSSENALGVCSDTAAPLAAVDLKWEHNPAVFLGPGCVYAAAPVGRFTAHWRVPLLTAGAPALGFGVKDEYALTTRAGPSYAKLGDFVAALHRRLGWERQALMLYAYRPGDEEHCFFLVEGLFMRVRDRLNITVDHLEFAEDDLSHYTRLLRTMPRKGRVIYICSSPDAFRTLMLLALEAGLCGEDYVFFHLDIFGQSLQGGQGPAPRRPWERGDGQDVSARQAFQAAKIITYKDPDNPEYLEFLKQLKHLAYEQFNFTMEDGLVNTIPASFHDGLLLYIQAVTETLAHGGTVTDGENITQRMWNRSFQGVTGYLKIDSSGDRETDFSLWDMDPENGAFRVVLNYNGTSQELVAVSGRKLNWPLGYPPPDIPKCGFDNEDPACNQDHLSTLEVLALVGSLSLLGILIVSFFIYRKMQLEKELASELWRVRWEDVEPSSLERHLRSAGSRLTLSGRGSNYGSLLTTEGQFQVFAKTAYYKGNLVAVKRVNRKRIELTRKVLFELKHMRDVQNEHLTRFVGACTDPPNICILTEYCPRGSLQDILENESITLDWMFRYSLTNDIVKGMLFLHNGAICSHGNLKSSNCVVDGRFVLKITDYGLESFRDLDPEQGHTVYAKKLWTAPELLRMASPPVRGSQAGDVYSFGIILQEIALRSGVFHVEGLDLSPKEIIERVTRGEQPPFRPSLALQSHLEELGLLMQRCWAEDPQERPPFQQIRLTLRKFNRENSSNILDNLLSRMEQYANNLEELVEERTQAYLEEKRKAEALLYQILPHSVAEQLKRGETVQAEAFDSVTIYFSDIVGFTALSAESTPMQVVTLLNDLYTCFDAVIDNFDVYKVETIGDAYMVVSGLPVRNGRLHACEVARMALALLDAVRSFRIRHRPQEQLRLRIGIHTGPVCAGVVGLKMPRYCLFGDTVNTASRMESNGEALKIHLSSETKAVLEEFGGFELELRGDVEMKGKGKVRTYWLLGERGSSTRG

[3] = biological target: T2, human NPR1 on HEK293/hNPR1.myc.DDK …; experiment: ECL cell binding (MSD), HEK293/hNPR1.myc.DDK cells, 0 hANP
Procedure: as §1, with “Experiments were carried out according to the following procedure. Cells from lines described above were rinsed once in 1×PBS buffer without Ca²⁺/Mg²⁺ nd incubated for 10 minutes at 37° C. with Enzyme Free Cell Dissociation Solution to detach cells from a flask. All” for “All”
as §2

[4] = biological target: T2, human NPR1 on HEK293/hNPR1.myc.DDK …; experiment: ECL cell binding (MSD), 0 hANP
Procedure: as §1, §2, §3

EC50 [1]: 3.7 nM | Ratio at 3.7 nM Ab concentration of Cell Binding Signal (RLU) to HEK293/hNPR1.myc.DKK relative to parental HEK293 [1]: 24 ratio | % Activation (vs. ANP max), Expt II [2]: 126% | EC50 (nM), calcium flux, Expt II [2]: 50.8 nM | Ratio at 3.7 nM Ab concentration of Cell Binding Signal (RLU) to HEK293/hNPR1.myc.DKK relative to parental HEK293 [4]: 1 ratio
B1: mAb22810 (antibody, human IgG4, V domains shown)
VH: EVQLVESGGGLVKPGGSLRLSCVVSGFTFRIYTMNWVRQAPGKGLEWVASISSSSSFINYADSLKGRFTISRDNAQNSLYLQMNSLRAEDTAIYYCARAAGNDVLPGRMDVWGQGTSVTVSS
VL: EIVLTQSPGTLSLSPGERATLSCRASQSVSSNYLAWYQQKPGQVPSLLIYGASSRATGIPDRFSGSGSGTDFTLTITRLEPEDFAVYYCQQYGISPWTFGQGTKVEIK
binding result [3]: no binding (tested: ratio below 3 at 3.7 nM Ab)
